Laboratory results as given in patent publication US20250340623A1 (AC IMMUNE, published 2025).
Where no end group is shown, it is not given here. The star is where a group is joined. Biotin = O=C1N[C@H]2[C@H](CS[C@H]2CCCCC(=O)*)N1; Ahx = NCCCCCC(=O)O

T1: 127-140aa
T1 peptide: {Biotin-Ahx}-MPSEEGYQDYEPEA

T2: 64-78aa
T2 construct: also called alpha-synuclein peptide 64-78
T2 peptide: {Biotin-Ahx}-TNVGGAVVTGVTAVA

T3: 118-132aa
T3 peptide: {Biotin-Ahx}-VDPDNEAYEMPSEEG

T4: 46-60aa
T4 construct: also called alpha-synuclein peptide 46-60
T4 peptide: {Biotin-Ahx}-EGVVHGVATVAEKTK

T5: 82-96aa
T5 construct: also called alpha-synuclein peptide 82-96
T5 peptide: {Biotin-Ahx}-VEGAGSIAAATGFVK

T6: 91-105aa
T6 peptide: {Biotin-Ahx}-ATGFVKKDQLGKNEE

T7: 10-24aa
T7 construct: also called alpha-synuclein peptide 10-24
T7 peptide: {Biotin-Ahx}-KAKEGVVAAAEKTKQ

T8: 1-14aa
T8 construct: also called alpha-synuclein peptide 1-14
T8 peptide: MDVFMKGLSKAKEG-biotin

T9: 1-15aa
T9 construct: also called alpha-synuclein peptide 1-15
T9 peptide: {Biotin-Ahx}-MDVFMKGLSKAKEGV


Experiments:
127-140aa = molecular target: T1, 127-140aa; assay: indirect ELISA on biotinylated 15-mer peptide, supernatant 1/100
Experimental: (§1) Serum-free supernatants were harvested from stable hybridomas. The supernatants containing antibodies of interest were then screened by an indirect ELISA assay to determine epitopes. Epitopes were first determined using a library of 15-mer peptides covering the entire sequence of human alpha-synuclein protein, spanning amino acids (aa) 1-140 with 9aa offset and […] overlap. […] Briefly, streptavidin-coated ELISA plates were blocked overnight at 4° C. […] Plates were washed with PBS/0.05% Tween®20 and then incubated with the hybridoma supernatants at 1/100 dilution for 1 hour at 25° C.

64-78aa = molecular target: T2, 64-78aa; assay: indirect ELISA on biotinylated 15-mer peptide
Experimental: as §1

118-132aa = molecular target: T3, 118-132aa; assay: indirect ELISA on biotinylated 15-mer peptide
Experimental: as §1

46-60aa = molecular target: T4, 46-60aa; assay: indirect ELISA on biotinylated 15-mer peptide
Experimental: as §1

82-96aa = molecular target: T5, 82-96aa; assay: indirect ELISA on biotinylated 15-mer peptide
Experimental: as §1

alpha-synuclein seeds [1] = molecular target: T10, alpha-synuclein seeds (UniProt P37840 1-140); assay: cell-based or functional assay
91-105aa = molecular target: T6, 91-105aa; assay: indirect ELISA on biotinylated 15-mer peptide
Experimental: as §1

10-24aa = molecular target: T7, 10-24aa; assay: indirect ELISA on biotinylated 15-mer peptide
Experimental: as §1

1-14aa = molecular target: T8, 1-14aa; assay: indirect ELISA on biotinylated 15-mer peptide
Experimental: as §1

1-15aa = molecular target: T9, 1-15aa; assay: indirect ELISA on biotinylated 15-mer peptide
Experimental: as §1

alpha-synuclein seeds [2] = molecular target: T10, alpha-synuclein seeds; assay: cell-based or functional assay; remark: listed apart in the source

| Binder | binding result (127-140aa) | binding result (64-78aa) | binding result (118-132aa) | binding result (46-60aa) | binding result (82-96aa) | aggregation half-time (τ1/2) of seeded alpha-synuclein aggregation, ThT; no antibody 26.9 hours (alpha-synuclein seeds [1]) [h] | binding result (91-105aa) | binding result (10-24aa) | binding result (1-14aa) | binding result (1-15aa) | IC50, percentage of de novo alpha-synuclein aggregates formed in cells after immunodepletion of seeds (alpha-synuclein seeds [2]) [nM] |
| --- | --- | --- | --- | --- | --- | --- | --- | --- | --- | --- | --- |
| ACI-7067-1106A8-Ab2 (antibody, V domains shown, mouse hybridoma mAb; VH/VL only; also called 1106A8H3) VH: EVQLVESGGGLVQPKGSLKLSCAASGFTFNTYAMHWVRQAPGKGLEWVARIRSKGSNYATNYADSVKDRFTISRDDSQSMLYLQMNNLKTEDTAMYYCVRGHGSSYFSYWGQGTLVTVSA VL: QIVLTQSPAIMSASPGEKVTMTCSASSSVSYMHWYQQKSGTSPKRWIYDTSNLASGVPARFSGSGSGTSYSLTISSMEAEDAATYYCQQWNSHPPTFGAGTKLELK | binds | no binding (tested: supernatant 1/100) | no binding (tested: supernatant 1/100) | no binding (tested: supernatant 1/100) | no binding (tested: supernatant 1/100) |  |  |  |  |  |  |
| ACI-7079-2501D10-Ab1 (antibody, V domains shown, mouse hybridoma mAb; VH/VL only; also called 2501D10C3) VH: EVQLVESGGGLVQPKGSLKVSCAASGFTFKTYAMHWVRQAPGKGLEWVARIRSENSNFAKYYADSVKDRFTISRDDSQSMLYLQMNNLKTEDTAMYYCVRGYNGSSLDYWGQGTTLTVSS VL: QIVLTQSPAIMSAFPGERVTMTCSASSSVNYMHWYQQKSGTSPKRWIYDTSKLASGVPARFSGGGSGTSYSLTISNMEAEDAATYYCQQWRSNPPTFGGGTKLEIK | binds |  | no binding (tested: supernatant 1/100) | no binding (tested: supernatant 1/100) | no binding (tested: supernatant 1/100) |  | no binding (tested: supernatant 1/100) | no binding (tested: supernatant 1/100) | no binding (tested: supernatant 1/100) | no binding (tested: supernatant 1/100) |  |
| ACI-7079-2602G4-Ab4 (antibody, V domains shown, mouse hybridoma mAb; VH/VL only; also called 2602G4H1) VH: EVQLVESGGGLVQPKGSLKLSCAASGFTFKTYAMHWVRQAPGKGLEWVARIRSKGSDYATYYADSVKDRFTISRDDSQSMLYLQMNNLKTEDTAMYFCVRGGADSWFAYWGQGTLVTVST VL: QIVLTQSPAIMSASPGERITMTCTASSSVSYMHWYQQKSGTSPKRWIYDTSKLASGVPARFSGSGSGASYTLTISSMEAEDAATYYCQQWNRNPPTFGGGTQLAIK | binds |  | no binding (tested: supernatant 1/100) | no binding (tested: supernatant 1/100) | no binding (tested: supernatant 1/100) |  | no binding (tested: supernatant 1/100) | no binding (tested: supernatant 1/100) | no binding (tested: supernatant 1/100) | no binding (tested: supernatant 1/100) |  |
| ACI-3112H1_1101C8 (bispecific antibody, V domains shown) VH 1: EVQLQQSGPELVKPGASVKISCKASGYTFSDYFMNWVKQSHGKSLEWIGDINPNNGGSSYIQKFKGKATLTVDKSSTTAYMELRSLTSEDSAVYYCARGSNYAMDSWGQGTSVTVSS VL 1: DIVMSQSPSSLAVSAGEKVTMSCKSSQSLLNSRTRKNYLAWYQQKPGQSPKLLIYWASTRESGVPDRFTGSGSGTDFTLTISSVQAEDLAVYYCKQSYDLWTFGGGTKLEIK VH 2: EVQLVESGGGLVQPKGSLKLSCAASGFSFNIYAMNWVRQAPGKGLEWVARIRSKSNNYATYYADSVKDRFTISRADSESMLYLQMNNLKTEDTAMYYCVRVGLRFYAMDYWGQGTSVTVSS VL 2: DVLMTQTPLSLPVSLGDQASISCRSSQSIVHSNGNTYLEWYLQKPGQSPKLLIYKVSNRFSGVPDRFSGSGSGTDFTLKISRVEAEDLGVYYCFQGSQGPLTFGAGTKLELK |  |  |  |  |  |  |  |  |  |  | 18 |

Next, values leading:

| binding result (127-140aa) | binding result (64-78aa) | binding result (118-132aa) | binding result (46-60aa) | binding result (82-96aa) | aggregation half-time (τ1/2) of seeded alpha-synuclein aggregation, ThT; no antibody 26.9 hours (alpha-synuclein seeds [1]) [h] | binding result (91-105aa) | binding result (10-24aa) | binding result (1-14aa) | binding result (1-15aa) | IC50, percentage of de novo alpha-synuclein aggregates formed in cells after immunodepletion of seeds (alpha-synuclein seeds [2]) [nM] | Binder |
| --- | --- | --- | --- | --- | --- | --- | --- | --- | --- | --- | --- |
| binds | no binding (tested: supernatant 1/100) | no binding (tested: supernatant 1/100) | no binding (tested: supernatant 1/100) | no binding (tested: supernatant 1/100) | 30.1 |  |  |  |  |  | ACI-7067-1113D10-Ab1 (antibody, V domains shown, mouse hybridoma mAb; VH/VL only; also called 1113D10E3D5) VH: EVQLVESGGGLVQPKGSLKLSCAASGFTFNTYALHWVRQAPGKGLEWVARIRSKSSNYATYYADSVKDRFTISRDDSQSMLYLQMNNLKTEDTGMYYCVRGGVSPFDYWGQGTTLTVSS VL: QIVLTQSPAIMSASPGEKVTMTCSASSSVSYMHWYQQKSGTSPKRWIYDTSKLASGVPARFSGSGSGTSYSLTISSMEAEDSATYYCQQWSNNPPTFGGGTKLEIK |
| binds |  | no binding (tested: supernatant 1/100) | no binding (tested: supernatant 1/100) | no binding (tested: supernatant 1/100) |  | no binding (tested: supernatant 1/100) | no binding (tested: supernatant 1/100) | no binding (tested: supernatant 1/100) | no binding (tested: supernatant 1/100) |  | ACI-7079-2605B3-Ab2 (antibody, V domains shown, mouse hybridoma mAb; VH/VL only; also called 2605B3D1) VH: EVQLVESGGGLVQPKGSLKLSCAASGFIFKTYAMHWVRQAPGKGLEWVARIRSKGGNYATYFADSVKDRFTISRDDSQNMLYLQVNNLKIEDTAMYFCVRGGNYSWFAYWGQGTLVTVSA VL: QIVLTQSPAIMSASPGEKVTMTCSASSSVTYMHWYQQKSGTSPKRWIYDTSQLASGVPARFSGSGSGTSHSLTISSMETEDAATYYCQQWTRNPPTFGGGTKLAIK |
| binds |  | no binding (tested: supernatant 1/100) | no binding (tested: supernatant 1/100) | no binding (tested: supernatant 1/100) |  | no binding (tested: supernatant 1/100) | no binding (tested: supernatant 1/100) | no binding (tested: supernatant 1/100) | no binding (tested: supernatant 1/100) |  | ACI-7079-2603F3-Ab1 (antibody, V domains shown, mouse hybridoma mAb; VH/VL only; also called 2603F3H3) VH: EVQLVESGGGLVQPKGSLKLSCAASGFTFNTYAMHWVRQAPGKGLEWVARIRSKGSNYATYYADSVKDRFTISRDDSQSMLYLQMNNLKTEDTAMYYCVRGGGDSWFAYWGQGTLVTVSA VL: QIVLTQSPAIMSASPGERVTMTCTASSSVSYMHWYQQKSGTSPKRWIYDTSKLASGVPARFSGSGSGASYTLTISSMEAEDAATYYCQQWNSNPPTFGGGTQLAIK |
| binds | no binding (tested: supernatant 1/100) | no binding (tested: supernatant 1/100) | no binding (tested: supernatant 1/100) | no binding (tested: supernatant 1/100) | 33.3 |  |  |  |  |  | ACI-7067-1108B11-Ab2 (antibody, V domains shown, mouse hybridoma mAb; VH/VL only; also called 1108B11D3) VH: EVQLVESGGGLVQPKGSLKLSCAASGFTFNTYAMHWVRQAPGKGLEWVARIRSKGSNYATNYADSVKDRFTISRDDSQSMLYLQMNNLKTEDTAMYYCVRGHGSSYFSYWGQGTLVTVSA VL: QIVLTQSPAIMSASPGERITMTCSANSSVTYMHWYQQKSGTSPKRWIYDTSNLASGVPARFSGSGSGTSYSLTISSMEAEDAATYYCQQWKSHPPTFGAGTKLELK |
| binds |  | no binding (tested: supernatant 1/100) | no binding (tested: supernatant 1/100) | no binding (tested: supernatant 1/100) |  | no binding (tested: supernatant 1/100) | no binding (tested: supernatant 1/100) | no binding (tested: supernatant 1/100) | no binding (tested: supernatant 1/100) |  | ACI-7079-2507B3-Ab1 (antibody, V domains shown, mouse hybridoma mAb; VH/VL only; also called 2507B3G8) VH: EVQLVESGGGLVQPKGSLKVSCAASGFTFKTYAMHWVRQAPGKGLEWVARIRSENSNFAKYYADSVKDRFTISRDDSQSMLYLQMHTLKTEDTAIYYCVRGYNGSSLDYWGQGTTLTVSS VL: QIVLTQSPAIMSAFPGERVTMTCSASSSVNYMHWYQQKSGTSPKRWIYDTSKLASGVPARFSGGGSGTSYSLTISNMEAEDAATYYCQQWRSNPPTFGGGTKLEIK |
|  |  |  |  |  |  |  |  |  |  | 21.6 | ACI-4301D5_3108C10 (bispecific antibody, V domains shown) VH 1: QVQLQQSGPELVRPGASVKISCKASGYRFTSYYIHWVKQRPGQGLEWIGWIYPGSDNTKHNDKFKGKATLTADTSSSTAYMQLSSLTSEDSAVYFCARDYDVGFGYWGQGTLVTVSS VL 1: not shown VH 2: ELQLVESGGGLVRPGGSLKLSCATSGFTFRNYAMSWVRQTPAKRLEWVATISDGGTYTFYSDNVKGRFTISRDNVKNTLYLQMSHLKSEDTAMYYCSRAGSGHWGQGTTLTVSS VL 2: not shown |
